The test system of one assay is KPNA4 ARM. Nature of the assay: GenVar_HD2 ProP-PD phage selection, KPNA4 ARM. The assay is classed as binding, human. Conditions: bait-prey protein level, bait_accession O00629.
The target of the next assay is ABL1 SH3 (Homo sapiens, UniProt P00519). Nature of the assay: GenVar_HD2 ProP-PD phage selection, ABL1 SH3. Type of assay: binding. Particulars: bait domain-prey protein level, bait ABL1_SH3__P00519_60_121.
ABL1 SH3, sequence (P00519 60-121): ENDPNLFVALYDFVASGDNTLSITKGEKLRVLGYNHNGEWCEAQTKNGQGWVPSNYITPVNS

B1: O60832 (protein, UniProt O60832 1-514, looked up)
chain: MADAEVIILPKKHKKKKERKSLPEEDVAEIQHAEEFLIKPESKVAKLDTSQWPLLLKNFDKLNVRTTHYTPLACGSNPLKREIGDYIRTGFINLDKPSNPSSHEVVAWIRRILRVEKTGHSGTLDPKVTGCLIVCIERATRLVKSQQSAGKEYVGIVRLHNAIEGGTQLSRALETLTGALFQRPPLIAAVKRQLRVRTIYESKMIEYDPERRLGIFWVSCEAGTYIRTLCVHLGLLLGVGGQMQELRRVRSGVMSEKDHMVTMHDVLDAQWLYDNHKDESYLRRVVYPLEKLLTSHKRLVMKDSAVNAICYGAKIMLPGVLRYEDGIEVNQEIVVITTKGEAICMAIALMTTAVISTCDHGIVAKIKRVIMERDTYPRKWGLGPKASQKKLMIKQGLLDKHGKPTDSTPATWKQEYVDYSESAKKEVVAEVVKAPQVVAEAAKTAKRKRESESESDETPPAAPQLIKKEKKKSKKDKKAKAGLESGAEPGDGDSDTTKKKKKKKKAKEVELVSE
modifications: full-length
In the assay on KPNA4 ARM, B1 had a max_promiscuity of 3 and a max_specificity of 1.

B2: ESPN (protein, UniProt B1AK53 1-854, looked up)
Espin: MALEQALQAARQGELDVLRSLHAAGLLGPSLRDPLDALPVHHAARAGKLHCLRFLVEEAALPAAARARNGATPAHDASATGHLACLQWLLSQGGCRVQDKDNSGATVLHLAARFGHPEVVNWLLHHGGGDPTAATDMGALPIHYAAAKGDFPSLRLLVEHYPEGVNAQTKNGATPLYLACQEGHLEVTQYLVQECGADPHARAHDGMTPLHAAAQMGHSPVIVWLVSCTDVSLSEQDKDGATAMHFAASRGHTKVLSWLLLHGGEISADLWGGTPLHDAAENGELECCQILVVNGAELDVRDRDGYTAADLSDFNGHSHCTRYLRTVENLSVEHRVLSRDPSAELEAKQPDSGMSSPNTTVSVQPLNFDLSSPTSTLSNYDSCSSSHSSIKGQHPPCGLSSARAADIQSYMDMLNPELGLPRGTIGKPTPPPPPPSFPPPPPPPGTQLPPPPPGYPAPKPPVGPQAADIYMQTKNKLRHVETEALKKELSSCDGHDGLRRQDSSRKPRAFSKQPSTGDYYRQLGRCPGETLAARPGMAHSEEVRARQPARAGCPRLGPAARGSLEGPSAPPQAALLPGNHVPNGCAADPKASRELPPPPPPPPPPLPEAASSPPPAPPLPLESAGPGCGQRRSSSSTGSTKSFNMMSPTGDNSELLAEIKAGKSLKPTPQSKGLTTVFSGIGQPAFQPDSPLPSVSPALSPVRSPTPPAAGFQPLLNGSLVPVPPTTPAPGVQLDVEALIPTHDEQGRPIPEWKRQVMVRKMQLKMQEEEEQRRKEEEEEARLASMPAWRRDLLRKKLEEEREQKRKEEERQKQEELRREKEQSEKLRTLGYDESKLAPWQRQVILKKGDIAKY
On to B2, for which, in the assay with ABL1 SH3, the max_promiscuity was 2 and the max_specificity is 0.8421.

B3: FANCG (protein, UniProt O15287 1-622, looked up)
Fanconi anemia group G protein: MSRQTTSVGSSCLDLWREKNDRLVRQAKVAQNSGLTLRRQQLAQDALEGLRGLLHSLQGLPAAVPVLPLELTVTCNFIILRASLAQGFTEDQAQDIQRSLERVLETQEQQGPRLEQGLRELWDSVLRASCLLPELLSALHRLVGLQAALWLSADRLGDLALLLETLNGSQSGASKDLLLLLKTWSPPAEELDAPLTLQDAQGLKDVLLTAFAYRQGLQELITGNPDKALSSLHEAASGLCPRPVLVQVYTALGSCHRKMGNPQRALLYLVAALKEGSAWGPPLLEASRLYQQLGDTTAELESLELLVEALNVPCSSKAPQFLIEVELLLPPPDLASPLHCGTQSQTKHILASRCLQTGRAGDAAEHYLDLLALLLDSSEPRFSPPPSPPGPCMPEVFLEAAVALIQAGRAQDALTLCEELLSRTSSLLPKMSRLWEDARKGTKELPYCPLWVSATHLLQGQAWVQLGAQKVAISEFSRCLELLFRATPEEKEQGAAFNCEQGCKSDAALQQLRAAALISRGLEWVASGQDTKALQDFLLSVQMCPGNRDTYFHLLQTLKRLDRRDEATALWWRLEAQTKGSHEDALWSLPLYLESYLSWIRPSDRDAFLEEFRTSLPKSCDL
For the molecule B3, in the assay with ABL1 SH3, the max_promiscuity turned out to be 5 and the max_specificity is listed as 1.

B4: O60934 (protein, UniProt O60934 1-754, looked up)
chain: MWKLLPAAGPAGGEPYRLLTGVEYVVGRKNCAILIENDQSISRNHAVLTANFSVTNLSQTDEIPVLTLKDNSKYGTFVNEEKMQNGFSRTLKSGDGITFGVFGSKFRIEYEPLVACSSCLDVSGKTALNQAILQLGGFTVNNWTEECTHLVMVSVKVTIKTICALICGRPIVKPEYFTEFLKAVESKKQPPQIESFYPPLDEPSIGSKNVDLSGRQERKQIFKGKTFIFLNAKQHKKLSSAVVFGGGEARLITEENEEEHNFFLAPGTCVVDTGITNSQTLIPDCQKKWIQSIMDMLQRQGLRPIPEAEIGLAVIFMTTKNYCDPQGHPSTGLKTTTPGPSLSQGVSVDEKLMPSAPVNTTTYVADTESEQADTWDLSERPKEIKVSKMEQKFRMLSQDAPTVKESCKTSSNNNSMVSNTLAKMRIPNYQLSPTKLPSINKSKDRASQQQQTNSIRNYFQPSTKKRERDEENQEMSSCKSARIETSCSLLEQTQPATPSLWKNKEQHLSENEPVDTNSDNNLFTDTDLKSIVKNSASKSHAAEKLRSNKKREMDDVAIEDEVLEQLFKDTKPELEIDVKVQKQEEDVNVRKRPRMDIETNDTFSDEAVPESSKISQENEIGKKRELKEDSLWSAKEISNNDKLQDDSEMLPKKLLLTEFRSLVIKNSTSRNPSGINDDYGQLKNFKKFKKVTYPGAGKLPHIIGGSDLIAHHARKNTELEEWLRQEMEVQNQHAKEESLADDLFRYNPYLKRRR
modifications: full-length
In the case of B4, in the assay with KPNA4 ARM, the max_promiscuity was 1 and the max_specificity is 1.

Values taken from publication PMC11369174, “Proteome-scale characterisation of motif-based interactome rewiring by disease mutations” (Molecular Systems Biology, 2024).
